Source: patent publication US20240309087A1

Assays:
[1] = target: human CD112R on CHO-CD112R cells (human) (UniProt Q6DKI7); experiment: FACS binding to CHO-CD112R cells, MFI-APC, ambiguous fit of the negative control; unit from the axis
[2] = target: human CD112R on CHO-CD112R cells (human) (UniProt Q6DKI7); experiment: FACS binding to CHO-CD112R cells, MFI-APC, fit of the negative control; unit from the axis

human CD112R on CHO-CD112R cells (human), sequence (Q6DKI7 41-326 limits assumed): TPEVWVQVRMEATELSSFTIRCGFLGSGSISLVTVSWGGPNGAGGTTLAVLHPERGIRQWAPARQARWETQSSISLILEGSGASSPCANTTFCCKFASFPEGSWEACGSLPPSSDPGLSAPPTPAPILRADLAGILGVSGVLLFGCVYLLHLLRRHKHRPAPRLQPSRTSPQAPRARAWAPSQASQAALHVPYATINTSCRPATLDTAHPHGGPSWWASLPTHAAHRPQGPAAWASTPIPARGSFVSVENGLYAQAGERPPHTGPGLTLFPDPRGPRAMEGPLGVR

EC50 [1]: 4050 µg/mL | EC50 [2]: 26.3 µg/mL
Substance: anti-KLH hu-IgG4 antibody
